Consider two substances from patent US20150007357A1, “Use Of Humanized Mice To Determine Toxicity” (Massachusetts Institute Of Technology, priority 2011, published 2015).

“Also recorded” adds a separate entry of the source.

One data set concerns PBMCs. The following applies: incubated in aqueous phase; previous study; cited from earlier work.
Data set [1] concerns cytokine-treated humanized mice (NSG engrafted with human HSCs, human IL-15 and Flt-3L plasmids). Briefly: Serum human cytokine release after mAb injection in IL-15/Flt-3L cytokine-treated humanized mice. The class given is in vivo, mouse. The following applies: for change in serum levels of human cytokines: vs saline control or baseline; for serum levels of human cytokines at 24 hours: 24 hours post-injection. The method, then: NSG mice were purchased from the Jackson Laboratories and maintained under specific pathogen-free conditions in the animal facilities at Nanyang Technological University and National University of Singapore. To reconstitute mice, newborn pups (less than 48 hours old) were irradiated with 100 cGy using a Gamma radiation source and injected intracardially with CD34+CD133+ cells ([…] cells/recipient). Human IL-15 and human Fltr-3 ligand were cloned separately into pcDNA3.1(+) vector (Invitrogen, USA) as described previously (Chen Q et al. (2009) Proc Natl Acad Sci, USA, 106:21783-21788). For hydrodynamic gene delivery, 12 week-old humice were injected with 50 μg of each plasmid in a total of 2 ml saline within 7 seconds using a 27 gauge needle. All research with human samples and mice was performed in compliance with the institutional guidelines.
(§1) The blood sampling at seven days post-cytokines treatment was used as the time point (−48 hours) for setting the baseline of the production levels of different cytokines and human cells absolute numbers and percentages. […] Blood samples were collected 2 and 24 hours after the mAb treatment, and all injected animals were euthanized at 24 hours.
(§2) Single cell suspensions were prepared from spleen by standard procedures. […] Cells were stained with appropriate antibodies in 100 μl PBS containing 0.2% BSA and 0.05% sodium azide for 30 min on ice. Flow cytometry was performed on a LSRII flow cytometer using the FACSDiva software (BD, Franklin Lakes, N.J.), and samples were analyzed using the Flowjo software. For cytokine detection, the concentration of human IL-2, IL-4, IL-6, IL-8, IL-1β, TNF-α, and IFN-γ were determined in sera using a BD Cytometric Bead Array (CBA) (BD Biosciences, USA). The experiments were conducted according to the manufacturer's recommendation and results were analyzed with the FCAP array software (Soft Flow Hungary, BD Biosciences).
NSG mice were purchased from the Jackson Laboratories and maintained under specific pathogen-free conditions in the animal facilities at Nanyang Technological University and National University of Singapore. To reconstitute mice, newborn pups (less than 48 hours old) were irradiated with 100 cGy using a Gamma radiation source and injected intracardially with CD34+CD133+ cells (1×10^5 cells/recipient). Human IL-15 and human Fltr-3 ligand were cloned separately into pcDNA3.1(+) vector (Invitrogen, USA) as described previously. For hydrodynamic gene delivery, 12 week-old humice were injected with 50 μg of each plasmid in a total of 2 ml saline within 7 seconds using a 27 gauge needle. All research with human samples and mice was performed in compliance with the institutional guidelines.
as §2, with “procedures. The following human conjugated antibodies were used for flow cytometry staining.” for “procedures.”, “IL-2,” for “IL-2, IL-4,”, “TNF-α, IFN-γ” for “TNF-α,”, “mouse IL-2, IL-6, IL-8” for “IFN-γ”

For data set [2], the system named is cytokine-treated humanized mice. The data set can be described thus: Liver enzymes (AST, ALT) in cytokine-treated humanized mice. The data set is classed as in vivo, mouse. The following applies: 24 hours post-treatment. Here is the method: as §1
The test system is the same in data set [3]. The data set can be described thus: Serum mouse cytokines (mIL-2, mIFN-γ, mIL-6) in cytokine-treated humanized mice. The following applies: mice treated with IL-15 and FLT3L or M-CSF plasmid. The class given is in vivo. Here is the method: (§3) Single cell suspensions were prepared from spleen by standard procedures. The following human conjugated antibodies were used for flow cytometry staining. CD3, CD4, CD8, CD19, CD28, CD45, CD45RO, CCR7 from Biolegend; CD14 and CD56 from BD Biosciences (BD Biosciences, USA) and mouse CD45.1 from eBioscience. Cells were stained with appropriate antibodies in 100 μl PBS containing 0.2% BSA and 0.05% sodium azide for 30 min on ice. Flow cytometry was performed on a LSRII flow cytometer using the FACSDiva software (BD, Franklin Lakes, N.J.), and samples were analyzed using the Flowjo software. For cytokine detection, the concentration of human IL-2, IL-6, IL-8, IL-1β, TNF-α, IFN-γ and mouse IL-2, IL-6, IL-8 were determined in sera using a BD Cytometric Bead Array (CBA) (BD Biosciences, USA). The experiments were conducted according to the manufacturer's recommendation and results were analyzed with the FCAP array software (Soft Flow Hungary, BD Biosciences).

Data set [4] relates to human T, B, NK cells and monocytes in cytokine-treated humanized mice. Briefly: Immunophenotyping of human cell lineages in peripheral blood (flow cytometry) of cytokine-treated humanized mice. The data set is classed as in vivo, mouse. Here is the method: as §1
as §2, with “procedures. The following human conjugated antibodies were used for flow cytometry staining.” for “procedures.”, “IL-2,” for “IL-2, IL-4,”, “TNF-α, IFN-γ” for “TNF-α,”, “mouse IL-2, IL-6, IL-8” for “IFN-γ”

Data set [5] has as its system humanized mice treated with M-CSF human cytokine plasmid. The data set can be described thus: Serum human cytokine release in humanized mice treated with human M-CSF plasmid. The data set is classed as in vivo, mouse. The following applies: 2 hours post-injection. The method, then:
as §1
as §3, with “Biosciences). […]” for “Biosciences).”

[6] abbreviates: 2 hours post-injection, 1 mg/kg i.v.
Setting [7] is: IL-15 and Flt-3L treated mice, 2 hours post-injection, 1 mg/kg i.v.
The mark [8] stands for this setting: 2 and 24 hrs post-injection, 1 mg/kg.

As to “Alemtuzumab: humanized anti-CD52 antibody for treating chronic lymphocytic leukemia (Campath, Genzyme)”, in the data set with PBMCs, the “IL-2 response of PBMCs” value is 14.0 pg/mL, the “IL-6 response of PBMCs” value is 88 pg/mL and the “IL-8 response of PBMCs” value is 6050 pg/mL. For the same substance, the “change in serum levels of human cytokines” value in data set [1] (setting [6]) is “increase in the serum levels of IL-2, IL-6, IL-8 and IL-1β”. Further, the “serum levels of human cytokines at 24 hours” value in data set [1] (1 mg/kg i.v.) was “most cytokines, except IL-1β, had returned to the baseline level”. The “serum levels of human IL-2” value in data set [1] (IL-15 and Flt-3L treated mice, 2 hours post-injection, 1 mg/kg) came to 0.0316 ng/mL. Also, in data set [1] (setting [7]), the “serum levels of human IL-6” value turned out to be 0.0192 ng/mL and the “serum levels of human IL-8” value was determined as 0.2241 ng/mL. The “Aspartate aminotransferase (AST) level” value in data set [2] is “did not induce a significatively increase”. For the same substance, the “mouse IL-6 (mIL-6) in sera” value in data set [3] is reported as “increase”. Moreover, in data set [4] (setting [8]), the “B cell numbers in peripheral blood” value was “complete depletion”, the “NK cell numbers in peripheral blood” value was “complete depletion”, the “T cell numbers in peripheral blood” value was “complete depletion” and the “monocyte numbers in peripheral blood” value is listed as “complete depletion; also recorded: only residual monocytes cell remaining at 24 hrs”.
As to “OKT3: mouse mAb against human CD3 for suppressing renal allograft rejection (Biolegend)”, in data set [5], the “serum levels of human IL-6” value stood at 1.5128 ng/mL and the “serum levels of human IL-8” value turned out to be 0.7226 ng/mL. Also, the “change in serum levels of human cytokines” value in data set [1] (setting [6]) was “significant increase in the circulating levels of IL-2, IL-6, IL-8 and IFN-γ”. Besides, in data set [1] (1 mg/kg i.v.), the “serum levels of human cytokines at 24 hours” value is given as “IL-2 expression was diminished 24-hours post injection, the other cytokines remained elevated”. Also, the “serum levels of human IL-6” value in data set [1] (setting [7]) was 0.1318 ng/mL. Besides, the “Aspartate aminotransferase (AST) level” value in data set [2] is on record as “did not induce a significatively increase”. In data set [3], the “mouse IL-6 (mIL-6) in sera” value is “increase; also recorded: slightly increase”; the “mouse mIL-2 and mIFN-γ in sera” value was “not”. Moreover, in data set [4] (setting [8]), the “NK cell numbers in peripheral blood” value is “transient decrease” and the “T cell numbers in peripheral blood” value is reported as “complete depletion”. Besides, the “reduction of the CD14+ cells” value in data set [4] (2 hours post-injection) is listed as 4 fold.
